How the values were obtained:
Assay in all cases: native MS
[1] = molecular target: His6-tagged Salmonella FrlB E224Q/H240N (Salmonella)
[2] = molecular target: wild-type Salmonella FrlB deglycase (Salmonella)
native MS = molecular target: the molecule itself

Molecule: His6-tagged Salmonella FrlB E224Q/H240N (enzyme)
- stoichiometry N [1]: 2

Molecule: wild-type Salmonella FrlB deglycase (enzyme)
- stoichiometry N [2]: 2

B1: His6-tagged Salmonella YidA (enzyme, UniProt A0A0F6B8Z9 1-281, looked up)
chain: MAIKLIAIDMDGTLLLPDHTISPAVKNAIAAAREKGVNVVLTTGRPYAGVHSYLKELHMEQPGDYCITYNGALVQKAGDGSTVAQTALSYDDYRYLEKLSREVGSHFHALDRNTLYTANRDISYYTVHESYVATIPLVFCEAEKMDPNTQFLKVMMIDEPAVLDRAIARIPAEVKEKYTVLKSAPYFLEILDKRVNKGTGVKSLVEALGIKPEEVMAIGDQENDIAMIEYAGMGVAMDNAIPSVKEVANFVTKSNLEDGVAWAIEKFVLNPDHSSGHFPAR
- stoichiometry N (native MS): 2

From PMC9080447 (Biochemistry, 2021)
